For one molecule, stoichiometry N results are on record in PMC6109231.

The experiment deals with heat shock protein 60 (HSP60) (human (endogenous in HEK293T)), P10809. Description: negative-stain EM, single-particle analysis; SEC fraction 4 (1.5 to 2 MDa) of HEK293T lysate, Superdex 200 in PBS pH 7.2 at 4°C; 2% uranyl acetate; raw micrographs, reference-free 2D class averages, 3D classification (RELION) and ab initio reconstruction (cryoSPARC); proteins identified by mass spectrometry of the fraction. Conditions: remark: other sources report otherwise.

B1: heat shock protein 60 (HSP60), P10809 27-573 (natural protein)
chain: AKDVKFGADARALMLQGVDLLADAVAVTMGPKGRTVIIEQSWGSPKVTKDGVTVAKSIDLKDKYKNIGAKLVQDVANNTNEEAGDGTTTATVLARSIAKEGFEKISKGANPVEIRRGVMLAVDAVIAELKKQSKPVTTPEEIAQVATISANGDKEIGNIISDAMKKVGRKGVITVKDGKTLNDELEIIEGMKFDRGYISPYFINTSKGQKCEFQDAYVLLSEKKISSIQSIVPALEIANAHRKPLVIIAEDVDGEALSTLVLNRLKVGLQVVAVKAPGFGDNRKNQLKDMAIATGGAVFGEEGLTLNLEDVQPHDLGKVGEVIVTKDDAMLLKGKGDKAQIEKRIQEIIEQLDVTTSEYEKEKLNERLAKLSDGVAVLKVGGTSDVEVNEKKDRVTDALNATRAAVEEGIVLGGGCALLRCIPALDSLTPANEDQKIGIEIIKRTLKIPAMTIAKNAGVEGSLIVEKIMQSSSEVGYDAMAGDFVNMVEKGIIDPTKVVRTALLDAAGVASLLTTAEVVVTEIPKEEKDPGMGAMGGMGGGMGGGMF
B1 had a stoichiometry N of 7.
